# B1: Rab-3A-interacting protein (Rattus norvegicus (Rat)), Q62739 (parent)
# chain: MANDPLEGFHEVNLASPTSPDLLGVCDPGTQEQTTSPSVIYRPHPSTLCSATIQANALNLSDLPTQPVYSSPRHLNCAEISNISIHVPEPASSVASEVAAGLTRFTSRKDSCNAEREFLQGATVTEASAGNDDIFGLSTDSLSRLRSPSVLEVREKGYERLKEELAKAQRELKLKDEECERLSKVRDQLGQELEELTASLFEEAHKMVREANVKQATAEKQLKEAQGKIDVLQAEVAALKTLVLSSSPTSPTQEPLAAGKTPFKRGHTRNKSTSSAMSGSHQDFSAIQPIVKDCREADLSLYNEFRSWKDEPTMDRTCPFLDKIYQEDIFPCLTFAKSELASAVLEAVENNTLSIEPVGLQPIRFVKASAVECGGPKKCALTGQSKPCKHRIKLGDSSSYYYISPVCRYRITSVCNFFTYIRYIQQGLVKQQDVDQMFWEVMQLRKEMSLAKLGYFKEEL
# B2: Rab-3A-interacting protein (Rattus norvegicus (Rat)), Q62739 (parent)
# chain: B1 chain
# partner: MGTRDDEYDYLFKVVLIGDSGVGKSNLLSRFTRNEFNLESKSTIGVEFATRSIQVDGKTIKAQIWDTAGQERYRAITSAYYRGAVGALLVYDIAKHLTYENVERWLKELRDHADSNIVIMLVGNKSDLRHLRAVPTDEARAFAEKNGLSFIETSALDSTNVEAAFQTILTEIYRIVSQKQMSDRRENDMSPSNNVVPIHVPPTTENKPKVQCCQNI
# Variants of: B1
# Conditions: with exoc6_mouse Exoc6, Q8R313
# exoc6_mouse Exoc6, Q8R313, sequence (Q8R313 whole entry): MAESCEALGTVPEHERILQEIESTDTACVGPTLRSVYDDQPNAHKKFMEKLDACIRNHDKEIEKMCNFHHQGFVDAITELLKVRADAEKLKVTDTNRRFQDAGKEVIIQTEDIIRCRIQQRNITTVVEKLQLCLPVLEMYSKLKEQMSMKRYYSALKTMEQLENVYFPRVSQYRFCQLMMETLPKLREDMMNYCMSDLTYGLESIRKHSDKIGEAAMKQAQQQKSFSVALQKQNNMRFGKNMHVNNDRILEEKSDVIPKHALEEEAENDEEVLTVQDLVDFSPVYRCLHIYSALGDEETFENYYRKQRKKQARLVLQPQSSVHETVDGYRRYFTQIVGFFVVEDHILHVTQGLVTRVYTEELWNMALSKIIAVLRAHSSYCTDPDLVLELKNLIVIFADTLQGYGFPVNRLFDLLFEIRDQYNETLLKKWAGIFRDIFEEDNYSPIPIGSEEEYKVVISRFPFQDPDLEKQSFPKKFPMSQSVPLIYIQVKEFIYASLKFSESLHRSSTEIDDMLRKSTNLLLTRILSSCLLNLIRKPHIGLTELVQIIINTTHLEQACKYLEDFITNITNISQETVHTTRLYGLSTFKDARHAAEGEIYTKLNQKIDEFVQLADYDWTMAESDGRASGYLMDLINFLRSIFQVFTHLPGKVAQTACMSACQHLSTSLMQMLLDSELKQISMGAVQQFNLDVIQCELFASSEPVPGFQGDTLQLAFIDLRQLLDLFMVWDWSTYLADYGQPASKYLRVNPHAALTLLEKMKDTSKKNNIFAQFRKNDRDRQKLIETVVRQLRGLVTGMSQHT
row,Variant,effect of a mutation on the interaction
1,MANDPLEGFHEVNLASPTSPDLLGVCDPGTQEQTTSPSVIYRPHPSTLCSATIQANALNLSDLPTQPVYSSPRHLNCAEISNISIHVPEPASSVASEVAAGLTRFTSRKDSCNAEREFLQGATVTEASAGNDDIFGLSTDSLSRLRSPSVLEVREKGYERLKEELAKAQRELKLKDEECERLSKVRDQLGQELEELTASLFEEAHKMVREANVKQATAEKQLKEAQGKIDVLQAEVAALKTLVLSSSPTSPTQEPLAAGKTPFKRGHTRNKSTSSAMSGSHQDFSAIQPIVKDCREADLSLYNEFRSWKDEPTMDRTCPFLDKIYQEDSFPCLTFAKSELASAVLEAVENNTLSIEPVGLQPIRFVKASAVECGGPKKCALTGQSKPCKHRIKLGDSSSYYYISPVCRYRITSVCNFFTYIRYIQQGLVKQQDVDQMFWEVMQLRKEMSLAKLGYFKEEL [I329S],increasing interaction

# Variants of: B1
# Conditions: with exoc6_mouse Exoc6, Q8R313
# Remark: another data set of the same source
row,Variant,effect of a mutation on the interaction
1,MANDPLEGFHEVNLASPTSPDLLGVCDPGTQEQTTSPSVIYRPHPSTLCSATIQANALNLSDLPTQPVYSSPRHLNCAEISNISIHVPEPASSVASEVAAGLTRFTSRKDSCNAEREFLQGATVTEASAGNDDIFGLSTDSLSRLRSPSVLEVREKGYERLKEELAKAQRELKLKDEECERLSKVRDQLGQELEELTASLFEEAHKMVREANVKQATAEKQLKEAQGKIDVLQAEVAALKTLVLSSSPTSPTQEPLAAGKTPFKRGHTRNKATSSAMSGSHQDFSAIQPIVKDCREADLSLYNEFRSWKDEPTMDRTCPFLDKIYQEDIFPCLTFAKSELASAVLEAVENNTLSIEPVGLQPIRFVKASAVECGGPKKCALTGQSKPCKHRIKLGDSSSYYYISPVCRYRITSVCNFFTYIRYIQQGLVKQQDVDQMFWEVMQLRKEMSLAKLGYFKEEL [S272A],disrupting interaction

# Variants of: B2
# Conditions: with rb11a_mouse Rab11a
row,Variant,effect of a mutation on the interaction
1,MANDPLEGFHEVNLASPTSPDLLGVCDPGTQEQTTSPSVIYRPHPSTLCSATIQANALNLSDLPTQPVYSSPRHLNCAEISNISIHVPEPASSVASEVAAGLTRFTSRKDSCNAEREFLQGATVTEASAGNDDIFGLSTDSLSRLRSPSVLEVREKGYERLKEELAKAQRELKLKDEECERLSKVRDQLGQELEELTASLFEEAHKMVREANVKQATAEKQLKEAQGKIDVLQAEVAALKTLVLSSSPTSPTQEPLAAGKTPFKRGHTRNKSTSSAMSGSHQDFSAIQPIVKDCREADLSLYNEFRSWKDEPTMDRTCPFLDKIYQEDSFPCLTFAKSELASAVLEAVENNTLSIEPVGLQPIRFVKASAVECGGPKKCALTGQSKPCKHRIKLGDSSSYYYISPVCRYRITSVCNFFTYIRYIQQGLVKQQDVDQMFWEVMQLRKEMSLAKLGYFKEEL [I329S],disrupting interaction

# Variants of: B2
# Conditions: with rb11a_mouse Rab11a
# Remark: another data set of the same source
row,Variant,effect of a mutation on the interaction
1,MANDPLEGFHEVNLASPTSPDLLGVCDPGTQEQTTSPSVIYRPHPSTLCSATIQANALNLSDLPTQPVYSSPRHLNCAEISNISIHVPEPASSVASEVAAGLTRFTSRKDSCNAEREFLQGATVTEASAGNDDIFGLSTDSLSRLRSPSVLEVREKGYERLKEELAKAQRELKLKDEECERLSKVRDQLGQELEELTASLFEEAHKMVREANVKQATAEKQLKEAQGKIDVLQAEVAALKTLVLSSSPTSPTQEPLAAGKTPFKRGHTRNKATSSAMSGSHQDFSAIQPIVKDCREADLSLYNEFRSWKDEPTMDRTCPFLDKIYQEDIFPCLTFAKSELASAVLEAVENNTLSIEPVGLQPIRFVKASAVECGGPKKCALTGQSKPCKHRIKLGDSSSYYYISPVCRYRITSVCNFFTYIRYIQQGLVKQQDVDQMFWEVMQLRKEMSLAKLGYFKEEL [S272A],increasing interaction

# Reference: IntAct's records for PubMed 23435566
